Consider one substance from patent US20220281949A1.

In this test the target is DR1-restricted TCR HA1.7. The test is described as follows: flow cytometry: HA1.7-transduced primary CD4+ T cells stained with PE wild-type DR1 dextramer and anti-CD4.

Take “wild-type DR1 dextramer specific to Flu-HA306-318 (peptide-MHC)”: the percent of cells in the dextramer+ CD4+ quadrant came out at 30.4%.
